According to doi:10.1101/2025.11.05.686744 (bioRxiv, 2025):

Experiments:
[1] = biological target: Spindlin1 (residues 50-262) (human, UniProt Q9Y657 50-262); assay: NMR titration
[2] = biological target: Spindlin1^C96A/H252F (residues 50-262) (human, UniProt Q9Y657 50-262, C96A | H252F); assay: NMR titration
Chain of Spindlin1^C96A/H252F (residues 50-262) (Q9Y657 50-262 C96A/H252F): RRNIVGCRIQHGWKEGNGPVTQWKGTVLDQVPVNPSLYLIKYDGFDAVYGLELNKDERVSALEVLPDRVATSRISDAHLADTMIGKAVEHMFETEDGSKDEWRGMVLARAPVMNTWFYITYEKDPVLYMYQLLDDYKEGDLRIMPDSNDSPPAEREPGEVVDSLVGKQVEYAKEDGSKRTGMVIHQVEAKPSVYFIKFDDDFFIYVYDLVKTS

Chain of Spindlin1 (residues 50-262) (Q9Y657 50-262): as the sequence (Q9Y657 50-262 C96A/H252F) above, with A47C, F203H counted along it

B1: HBx_(1-120) protein genotype D (Hepatitis B virus protein X, short isoform) (domain or fragment)
chain: MAARLCCQLDPARDVLCLRPVGAESCGRPFSGSLGTLSSPSPSAVPTDHGAHLSLRGLPVCAFSSAGPCALRFTSARRMETTVNAHQILPKVLHKRTLGLSAMSTTDLEAYFKDCLFKDW
B1: binds [1].

B2: HBx_(1-120)^C61A/C69A (domain or fragment, Hepatitis B virus genotype D, UniProt P03165 1-120, looked up)
chain: MAARLCCQLDPARDVLCLRPVGAESCGRPFSGSLGTLSSPSPSAVPTDHGAHLSLRGLPVAAFSSAGPAALRFTSARRMETTVNAHQILPKVLHKRTLGLSAMSTTDLEAYFKDCLFKDW
B2: binds [2].
